Test results from paper doi:10.1101/2020.11.11.377994v1.

Legend:
[1] = substrate: CC(C)(COP(=O)(O)OP(=O)(O)OC[C@H]1O[C@@H](n2cnc3c(N)ncnc32)[C@H](O)[C@@H]1O)[C@@H](O)C(=O)NCCC(=O)NCCS; experiment: purified protein; conditions: 200 uM ATP, 10 mM MgCl2, pH 7.4, 37 °C
[2] = substrate: Nc1ncnc2c1ncn2[C@@H]1O[C@H](COP(=O)(O)OP(=O)(O)OP(=O)(O)O)[C@@H](O)[C@H]1O; experiment: purified protein; conditions: 200 uM dCoA, 10 mM MgCl2, pH 7.4, 37 °C, phosphotransferase

B1: DPCK (DPCK-WT), putative dephospho-CoA kinase (Aquifex aeolicus VF5) (protein)
chain: MKRIGLTGNIGCGKSTVAQMFRELGAYVLDADKLIHSFYRKGHPVYEEVVKTFGKGILDEEGNIDRKKLADIVFKDEEKLRKLEEITHRALYKEIEKITKNLSEDTLFILEASLLVEKGTYKNYDKLIVVYAPYEVCKERAIKRGMSEEDFERRWKKQMPIEEKVKYADYVIDNSGSIEETYKQVKKVYEELTRDP
Km [1]: 24.3 ± 1.7 µM | kcat [1]: 0.817 ± 0.0867 s⁻¹ | Km [2]: 12.7 ± 0.3 µM | kcat [2]: 0.73 ± 0.025 s⁻¹
